Measurements published in patent US20200223933A1 (APTEVO RESERCH AND DEVELOPMENT, published 2020).

Columns and labels:
[1] = target: some of the FcγR expressing cell lines; assay: flow cytometry on CHO cells stably expressing FcγR, anti-human IgG secondary (FIG. 30B)
human CD137 on cells [2] = target: T1, human CD137 on cells (human, UniProt Q07011 24-255); assay: cell-based or functional assay
human CD137 on cells [3] = target: T1, human CD137 on cells; assay: cell-based or functional assay; remark: listed apart in the source
human CD137 on cells [4] = target: T1, human CD137 on cells; assay: flow cytometry, normalized % positive cells of CD8 T cells from CD3-stimulated human PBMC, pooled data of 2 exp, n=6 donors
Method: (§1) FACS staining and analysis of CD8 T cells: Following 48 h of incubation with or without CD3, human and cynomolgus PBMC were harvested, pooled, recounted and diluted in FACS buffer (PBS +0.5% BSA, 0.05% NaN₃) to a concentration of 5×10⁶ cells/mL. 50 μL (0.25×10⁶ cells) of cell solution was added to a 96-well FACS staining plate (Falcon #351190). Following 10 min of Fc-blocking in RT using Beriglobin (hIgG, 200 μg/mL), cells were washed in FACS buffer and then incubated for 1 h in 4° C. with 100 μL of the biotinylated ALG.APV-210 or negative control. The antibodies were added in a serial dilution starting either at 5 μg/mL titrating down in a 12 step 1/3 dilution down to 0.0003 μg/mL (exp 1) or 1 μg/mL titrating down in a 12 step 1/2 dilution down to 0.0005 μg/mL (exp 2). […] Cells were analysed for ALG.APV-210 binding using flow cytometry by gating on viable, single cells expressing CD3 and CD8. MFI values (FMO subtracted) from 2 independent experiments as well as normalized pooled data from 2 experiments and EC₅₀-values were determined and plotted using GraphPad Prism 7, non-linear regression log (agonist) vs. normalized response—variable slope, n=6 donors/group.

human CD137 on cells [5] = target: T1, human CD137 on cells; assay: flow cytometry, CD8 T cells gated from CD3-stimulated human PBMC, exp 2, n=3 donors
Method: as §1

[6] = target: T2, cynomolgus CD137 on cells (cynomolgus macaque, UniProt A9YYE7 24-254); assay: flow cytometry, CD8 T cells gated from CD3-stimulated cynomolgus PBMC, exp 2, n=3 donors
T2 construct: whole, on cells; also called cynomolgus macaque CD137; cynomolgus 4-1BB
T2 sequence (A9YYE7 entry or part of it): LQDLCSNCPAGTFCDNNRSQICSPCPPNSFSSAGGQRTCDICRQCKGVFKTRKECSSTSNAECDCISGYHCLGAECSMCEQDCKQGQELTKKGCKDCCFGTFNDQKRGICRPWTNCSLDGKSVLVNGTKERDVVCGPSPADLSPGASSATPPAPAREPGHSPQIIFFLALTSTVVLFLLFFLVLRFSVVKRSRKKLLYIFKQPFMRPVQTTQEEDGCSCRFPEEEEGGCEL
Method: (§2) Isolation and stimulation of cynomolgus PBMC: Cynomolgus PBMC were isolated from 20 mL of cynomolgus monkey blood from 3 different donors, obtained from Silabe, France by density gradient centrifugation using Lympholyte-mammal (Cedarlane labs) according to manufacturer's instructions. Non-tissue treated 96 well plates were pre-coated overnight at 4° C. with 3 μg/mL α-monkey CD3, clone FN-18 (Invitrogen #APS0301). The cynomolgus PBMC were then stimulated identically as the human PBMC described above
(§3) FACS staining and analysis of CD8 T cells: Following 48 h of incubation with or without CD3, human and cynomolgus PBMC were harvested, pooled, recounted and diluted in FACS buffer (PBS +0.5% BSA, 0.05% NaN₃) to a concentration of 5×10⁶ cells/mL. 50 μL (0.25×10⁶ cells) of cell solution was added to a 96-well FACS staining plate (Falcon #351190). […] Cells were analysed for ALG.APV-210 binding using flow cytometry by gating on viable, single cells expressing CD3 and CD8. MFI values (FMO subtracted) from 2 independent experiments as well as normalized pooled data from 2 experiments and EC₅₀-values were determined and plotted using GraphPad Prism 7, non-linear regression log (agonist) vs. normalized response—variable slope, n=6 donors/group.

[7] = target: T2, cynomolgus CD137 on cells; assay: flow cytometry, CD8 T cells gated from CD3-stimulated cynomolgus PBMC, exp 1, n=3 donors
Method: as §2, §3

human CD137 on cells [8] = target: T1, human CD137 on cells; assay: flow cytometry, % positive cells of CD8 T cells gated from CD3-stimulated human PBMC, exp 1, n=3 donors
Method: as §1

[9] = target: T2, cynomolgus CD137 on cells; assay: flow cytometry, % positive cells of CD8 T cells gated from CD3-stimulated cynomolgus PBMC, exp 1, n=3 donors
Method: as §2, §3

human CD137 on cells [10] = target: T1, human CD137 on cells; assay: flow cytometry, CD8 T cells gated from CD3-stimulated human PBMC, exp 1, n=3 donors
Method: as §1

T1 sequence (Q07011 24-255 limits assumed): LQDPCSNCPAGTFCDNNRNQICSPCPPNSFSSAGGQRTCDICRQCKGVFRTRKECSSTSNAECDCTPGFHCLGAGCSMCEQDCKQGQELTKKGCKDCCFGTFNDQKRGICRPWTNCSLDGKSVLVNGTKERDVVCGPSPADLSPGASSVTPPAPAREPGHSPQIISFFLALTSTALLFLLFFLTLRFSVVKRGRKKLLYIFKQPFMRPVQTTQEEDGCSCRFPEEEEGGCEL

Molecule: control human IgG1 molecule (antibody)
- concentration at which significant binding was observed [1]: 4 nM

B1: ALG.APV-210 (bispecific antibody)
chain: EVQLLESGGGLVQPGGSLRLSCAASGFTFSHGSMYWVRQAPGKGLEWVSSISSGSGSTYYADSVKGRFTISHDNSKNTLYLQMNSLRAEDTAVYYCARSSYYGSYYSIDYWGQGTLVTVSSGGGGSGGGGSGGGGSGGGGSDIQMTQSPSSLSASVGDRVTITCRASQSISSYLNWYQQKPGKAPKLLIYAASSLQSGVPSRFSGSGSGTDFTLTISSLQPEDFATYYCQQYYDNLPTFGQGTKLEIKEPKSSDKTHTCPPCPAPEAAGAPSVFLFPPKPKDTLMISRTPEVTCVVVDVSHEDPEVKFNWYVDGVEVHNAKTKPREEQYNSTYRVVSVLTVLHQDWLNGKEYKCAVSNKALPAPIEKTISKAKGQPREPQVYTLPPSRDELTKNQVSLTCLVKGFYPSDIAVEWESNGQPENNYKTTPPVLDSDGSFFLYSKLTVDKSRWQQGNVFSCSVMHEALHNHYTQKSLSLSPGSGGGGSGGGGSGGGGSPSEVQLLESGGGLVQPGGSLRLSCAASGFTFSSYAMSWVRQAPGKCLEWVSAISGSGGSTYYADSVKGRFTISRDNSKNTLYLQMNSLRAEDTAVYYCARYYGGYYSAWMDYWGQGTLVTVSSGGGGSGGGGSGGGGSGGGGSDIQMTQSPSSLSASVGDRVTITCRASQSISSFLNWYQQKPGKAPKLLIYAASSLQSGVPSRFSGSGSGTDFTLTISSLQPEDSATYYCQQTYGYLHTFGCGTKLEIKR
- EC50 (nM), IFNγ release of human CD8 T cells with CT26-h5T4^high cells (human CD137 on cells [2]): 0.41 nM
- EC50 (nM), IFNγ release of human CD8 T cells with CT26-h5T4^low cells (human CD137 on cells [2]): 0.24 nM
- maximal IFNγ release with CT26-h5T4^low cells relative to CT26-h5T4^high cells (human CD137 on cells [3]): 82%
- maximal IFNγ release with CT26-wt cells relative to CT26-h5T4^high cells (human CD137 on cells [3]): 7%

B2: biotinylated ALG.APV-210 (bispecific antibody)
chain: B1 chain
modifications: biotinylated (sites not given)
notes: also called ALG.APV-210 (biotinylated for FACS detection)
- EC50 (human CD137 on cells [4]): 0.027 nM
- EC50 (read off the curve) (human CD137 on cells [5]): ~0.2 nM
- EC50 (read off the curve) [6]: ~0.2 nM
- EC50 (read off the curve) [7]: ~0.3 nM
- EC50 (read off the curve) (human CD137 on cells [8]): ~0.03 nM
- EC50 (read off the curve) [9]: ~0.02 nM
- EC50 (read off the curve) (human CD137 on cells [10]): ~0.3 nM
